Measurements as given in doi:10.1101/2020.04.30.070086 (bioRxiv, 2020).

Target: T1, keratin 1 (K1) (UniProt P04104 1-637)
T1 sequence (looked up): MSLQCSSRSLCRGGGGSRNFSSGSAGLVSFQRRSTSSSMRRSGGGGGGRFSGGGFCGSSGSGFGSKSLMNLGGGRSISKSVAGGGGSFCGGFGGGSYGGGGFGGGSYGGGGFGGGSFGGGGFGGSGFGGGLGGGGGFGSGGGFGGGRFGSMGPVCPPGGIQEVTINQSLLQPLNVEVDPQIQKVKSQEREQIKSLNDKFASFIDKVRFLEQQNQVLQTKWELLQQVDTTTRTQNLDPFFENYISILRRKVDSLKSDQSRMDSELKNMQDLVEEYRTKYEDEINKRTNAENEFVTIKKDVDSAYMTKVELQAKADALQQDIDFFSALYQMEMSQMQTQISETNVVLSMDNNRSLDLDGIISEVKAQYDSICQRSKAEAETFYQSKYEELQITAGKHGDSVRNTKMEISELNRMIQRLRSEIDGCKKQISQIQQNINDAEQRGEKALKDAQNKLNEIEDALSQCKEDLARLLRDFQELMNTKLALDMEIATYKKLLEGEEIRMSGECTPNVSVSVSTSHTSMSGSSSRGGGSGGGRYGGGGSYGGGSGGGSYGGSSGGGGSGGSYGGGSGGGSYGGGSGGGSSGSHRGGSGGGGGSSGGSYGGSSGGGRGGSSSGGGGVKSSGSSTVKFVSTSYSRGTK
Assay: co-sedimentation

binding result: binds
B1: keratin 10 (K10), full length (natural protein, UniProt P02535-2 1-561, looked up)
chain: MSVLYSSSSKQFSSSRSGGGGGGGSVRVSSTRGSLGGGYSSGGFSGGSFSRGSSGGGCFGGSSGGYGGFGGGGSFGGGYGGSSFGGGYGGSSFGGGSFGGGGSFGGGSFGGGSYGGGFGGGGFGGDGGSLLSGNEKVTMQNLNDRLASYMDKVRALEESNYELEGKIKEWYEKHGNSSQREPRDYSKYYKTIEDLKGQILTLTTDNANVLLQIDNARLAADDFRLKYENEVTLRQSVEADINGLRRVLDELTLSKSDLEMQIESLNEELAYLKKNHEEEMRDLQNVSTGDVNVEMNAAPGVDLTQLLNNMRNQYEQLAEKNRKDAEEWFNQKSKELTTEIDSNIEQMSSHKSEITELRRTVQGLEIELQSQLALKQSLEASLAETEGRYCVQLSQIQSQISALEEQLQQIRAETECQNAEYQQLLDIKTRLENEIQTYRSLLEGEGSSSGGGGGRRGGSGGGSYGGSSGGGSYGGSSGGGGSYGGSSGGGGSYGGGSSGGGSHGGSSGGGYGGGSSSGGAGGHGGSSGGGYGGGSSSGGQGGSGGFKSSGGGDQSSKGPRY
